This data set concerns the molecule itself. The data set is described as follows: cryo-EM structure.

B1: RsmA (natural protein)
chain: not shown
B1: the binding result is “binds”.

The record behind these values is doi:10.1101/2022.11.16.516715 (bioRxiv, 2022).
